According to the nanobody polyreactivity screen of Harvey et al. (2022):

Experiment: yeast display, Sf9 membrane polyspecificity reagent, FACS + sequencing; frameworks hold sequencing errors
Outline: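 In a synthetic yeast display library (Saccharomyces cerevisiae BJ5465), nanobody expression was induced with galactose for 36–48 hours. FACS gates were set low and high (top ~1%) using anti-HA fluorescence for expression and streptavidin fluorescence for binding of the Sf9 membrane reagent. Each polyreactivity label is drawn from the gate of origin.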

Sequence	polyreactivity (PSR sort gate)
QVQLVESGGGLVQAGGSLRLSCAASGFTFGTNAMGWYRQAPGKERELVATISARGARTNYADSVKGRFTISRDNAKNTVYLQMNSLKPEDTAVYYCAADPGPHRYSYDYWGQGTQVTVSS	high polyreactivity
QVQLVESGGGLVQAGGSLRLSCAASGFTFGTNAMGWYSQAPGKERELVAAISGRVGSTYYADSVKGRFTISRDNAKNTVYFLMNSLKPEDTAVYYCAADTWKTWSPYLYYTYDSWGQGTQVTVSS	low polyreactivity
QVQLVESGGGLVQAGGSLRLSCAASGFTFGTYAMGWYRQAPGKERELVAAINGNGGSTYYADSVKGRFTISRDNAKNTVYLQMNSLKPEDTAVYYCAAARRSGSTRRDYWGQGTQVTVSS	high polyreactivity
QVQLVESGGGLVQAGGSLRLSCAASGFTFGTYAMGWYRQAPGKERELVARITSGGRTNYADSVKGRFTISRDNAKNTVYLQMNSLKPEDTAVYYCNAVNGYYWGSRFDYWGQGTQVTVSS	high polyreactivity
QVQLVESGGGLVQAGGSLRLSCAASGFTFGVNAMGWYRQAPGKERELVAAISRSGGSTYYADSVKGRFTISRDNAKNTVYLEMNSLKPEDTAVYYCNKAYHRRDSEFGYWGQGTQVTVSS	high polyreactivity
QVQLVESGGGLVQAGGSLRLSCAASGFTFGVYAMGWYRQAPGKERELVAAISRSSGRTYYADSVKGRFTISRDNAKNTVYLQMNSLKPEDTAVYYCAARGYTLSYVDMYYWGQGTQVTVSS	high polyreactivity
QVQLVESGGGLVQAGGSLRLSCAASGFTFGVYAMGWYRQAPGKERELVAAISSTGGSTYYADSVKGRFRISRDNAKNTVYLQMKSLKPEDTAVYYCAADPYPEYIRYLPGVVYWGQGTQVTVSS	low polyreactivity
QVQLVESGGGLVQAGGSLRLSCAASGFTFGWYAMGWYRQAPGKERELVAAISWSGGSTYYADSVKGRFTISRDNAKKTVYLQMNSLKPEDTAVYYCAAYPAYGGDYWGQGTQVTVSS	high polyreactivity
QVQLVESGGGLVQAGGSLRLSCAASGFTFGWYDMGWYRQAPGKERELVASISWSGSSTYYADSVKGRFTISRDNAKNTVYLQLNSLKPEDTAVYYCNDVSVDYVNWYWYDYWGQGTQVTVSS	high polyreactivity
QVQLVESGGGLVQAGGSLRLSCAASGFTFGYNAMGWYRQAPGKERELVAVITQSGGRTYYADSVKGRFTISRDNAKNTVYLQMISLKPEDTAVYYCNKVPRVYGYVKGSDYWGQGTQVTVSS	high polyreactivity
QVQLVESGGGLVQAGGSLRLSCAASGFTFGYYAMGWYRQAPGKERELVAAINWSGGRTYYADSVKGRFTISRDNAMNTVYLQMNRLKPEDTAVYYCAASSRTKRYYWGQGTQVTVSS	high polyreactivity
QVQLVESGGGLVQAGGSLRLSCAASGFTFGYYAMGWYRQAPGKERELVAAISSSGGSTYYADSVKGRFTLSRDNAKNTVYLQMNSLKPEDTAVYYCAVVVFSRVYRYFTSDYWGQGTQVTVSS	high polyreactivity
QVQLVESGGGLVQAGGSLRLSCAASGFTFGYYAMGWYRQAPGKERELVAGISRGGRTNYADSVKGRFTISRDNAKNTVYLQMNRLIPEDTAVFYCAARVVLSPGGYGYWGQGTQVTVSS	high polyreactivity
QVQLVESGGGLVQAGGSLRLSCAASGFTFGYYAMGWYRQATGKERELVATITGSGVRTYYADSLKGRFTISRDNAKNSVYLQMNSLKPEDTAVYYCNKVFSIPWQGVRFDYWGQGTQVTVSS	high polyreactivity
QVQLVESGGGLVQAGGSLRLSCAASGFTFGYYTMGWYRQAPGKERELVAAISSSGGRTYYADSVKGRFTISRDNAKNTVYLQMNSLKPEDTAVYYCAARARWAGLRYTRYYYWGQGTQVTVSS	high polyreactivity
QVQLVESGGGLVQAGGSLRLSCAASGFTFHLYAMGWYRQAPRKERELVAAISQSGDSTYYADTVKGRFTISRDNAKNTFYLQMNSLKPEDTAVYYFNADNDCVVWTYPFDFDYWGQGTQVTVSS	low polyreactivity
QVQLVESGGGLVQAGGSLRLSCAASGFTFHYNAMGWYRQAPGKEREFVAAISGSGDRTYYADSVKGRFTISRDNAKNTVYLQMNSLKPEDTAVYYCATSVRQNYFYSYDYWGQGTQVTVSS	high polyreactivity
QVQLVESGGGLVQAGGSLRLSCAASGFTFHYYAMGWYRPAPGKERELVAAISRGGGNTYYADSVKGRFTISRDNAKNTVYLQMNSLKPEDTAVYYCAADSKYRFSHGLDYWGQGTQVTVSS	high polyreactivity
QVQLVESGGGLVQAGGSLRLSCAASGFTFHYYAMGWYRQAPGKERELVAAISWSSGRTYYADSVKGRFTISRDNAKNTVYLQMNSLKPEDTAVYYCAASSYNRRDYWGQGTQVTVSS	high polyreactivity
QVQLVESGGGLVQAGGSLRLSCAASGFTFIDYAMGWYRQAPGKERELVAAISKRGGSTYYADSVKGRFTISRDNAKNSVYLQMNSLKPEDTAVYYCNAKAYHQGYLTRDDYWGQGTQVTVSS	high polyreactivity
QVQLVESGGGLVQAGGSLRLSCAASGFTFIKYAMGWYRQAPGKEREFDATISWNGGNTYYADSVKGRFTISRDKAKNTVYLQMNSLKPEDTAVYYCAARVKYRTRGGTVVSYDYWGQGTQVTVSS	high polyreactivity
QVQLVESGGGLVQAGGSLRLSCAASGFTFILYAMGWYRQAPGKERELVAAITTSGGRTYYADSVKGRFTISRDTAKNTVYLQMNSLKPEDTAVYYCNARTTPKERDYWGQGTQVTVSS	high polyreactivity

Sequence	polyreactivity (PSR sort gate)
QVQLVESGGGLVQAGGSLRLSCAASGFTFIPNAMGWYRQATGKERELVAAISTGGSTYYADSVKGRFTISRDNAKNTVSLQMNSLKPEDTAVYYCAAGILDLKLYFSSYDYWGQGTQVTVSS	low polyreactivity
QVQLVESGGGLVQAGGSLRLSCAASGFTFIPYAMGWYRQAPGKERELVASITYSGGRTYYADSVKGRFTISRDNAKNTVYLQMNSLKPEDTAVYYCNARSWGGYYHWGQGTQVTVSS	high polyreactivity
QVQLVESGGGLVQAGGSLRLSCAASGFTFIQYDMGWYRLAPGKERELVAAISSSGGSTYYADSVKGRFTISRDNAKNTVYLQMNSLKPEDTAVYNCAADPWVRLEYDYWGQGTQVTVSS	low polyreactivity
QVQLVESGGGLVQAGGSLRLSCAASGFTFIRYAMGCYRQAPGKERELVAAIRGTGTSTYYADSVKGRFTISRDNAKNTVYLQMNSLKPEDTAVYYCNKVAGRSPYTRYDYWGQGTQVTVSS	low polyreactivity
QVQLVESGGGLVQAGGSLRLSCAASGFTFIRYAMGWYRQAPGKERELVASISNRGGRTYYADSVKGRFTISRDNAKNTVYLQMNSLKPEDTAVYYCAAGYSYAQYSYPFLSFAFGYWGQGTQVTVSS	high polyreactivity
QVQLVESGGGLVQAGGSLRLSCAASGFTFIRYAMGWYRQAPGKERELVATISRSGGRTYYADSVKGRFTISRDNAKNTVYLQMNSLKPEDTAVYYCNAEAIVLNGGGYWGQGTQVTVSS	high polyreactivity
QVQLVESGGGLVQAGGSLRLSCAASGFTFISNAMGWYRQAPGKERELVAAISSSGGRTYYADSVKGRFTISRDNAKNTVYLQMNRLKPEDTAVYYCNADRSLLYSRKIEYDYWGQGTQVTVSS	low polyreactivity
QVQLVESGGGLVQAGGSLRLSCAASGFTFIYYAMGWSRQAPGKERELVAAIRWSGGSTYYADSVKGRFTISRDNAKNTVYLQMNSLNPEDTAVYYCAKGGPHRGTGLNDYWGQGTQVTVSS	high polyreactivity
QVQLVESGGGLVQAGGSLRLSCAASGFTFIYYAMGWYRQAPGKERELVAAISKRGGSTYYADSVKGRFTISRDTAKNTVYLQMYSLKPEDTAVYYCAPAFGQRRYDYWGQGTQVTVSS	high polyreactivity
QVQLVESGGGLVQAGGSLRLSCAASGFTFIYYAMGWYRQAPGTERELVAAISTSGDSTYYADSVKGRFTISRDNAKNSVYLQMNSLKPEDTAVYYCNADWYPYLHEYDYWGQGTQVTVSS	low polyreactivity
QVQLVESGGGLVQAGGSLRLSCAASGFTFIYYTMGWYRQAPGKEREFVAAISWGGSTYYADSVKGRFTISRDNAKITVYLLMNSLKPEDTAVYYCNAVSAVAYTRFVYWGQGTQVTVSS	high polyreactivity
QVQLVESGGGLVQAGGSLRLSCAASGFTFKAYAMGWYRQAPGKERELVAAISNSGGTTYYADSVKGRFTISRDNAKNTVYLQMNSLKPEDTAVYYCAAYQYYIPKMYYWGQGTQVTVSS	high polyreactivity
QVQLVESGGGLVQAGGSLRLSCAASGFTFKGNAMGWYRQAPGKESELVAGISRSGRTYYADSVKGRFTISRDNAKNSVYLQMNSLKPEDTAVYYCNARNQGWASLPTMGYWGQGTQVTVSS	high polyreactivity
QVQLVESGGGLVQAGGSLRLSCAASGFTFKNYAMGWYRQAPGKEREFVATISSRGGSTYYADSVKGRFTISRDNAKNTVYLQMNSLKPEDPAVYYCAARYFSYGRSRQRHYYWGQGTQVTVSS	high polyreactivity
QVQLVESGGGLVQAGGSLRLSCAASGFTFKNYAMGWYRQAPGKEREFVATISSRGGSTYYADSVKGRFTISRDNAKNTVYLQMNSLKPEDTAVYYCATSRYLSRSSEYGYWGQGTQVTVSS	high polyreactivity
QVQLVESGGGLVQAGGSLRLSCAASGFTFKQNAMGWYRQAPGKERELVAAISSSGRTNYADSVKGRFTISRDNAKNTVYLQMNSLKPEDTAVYYCAAATYNAYGRRSRYYHGYNSWGQGTQVTVSS	high polyreactivity
QVQLVESGGGLVQAGGSLRLSCAASGFTFKQNAMGWYRQAPGKERELVAAITRTGASTYYADSVKGRFTISRDNAKNTVYLQMNSLKPEDTAVYYCNAARRGSAYDYWGQGTQVTVSS	high polyreactivity
QVQLVESGGGLVQAGGSLRLSCAASGFTFKQYGMGWYRQAPGKERELVASISYRGGSTHYADSVKGRFTISRDNAKNTVYLQMNSLKPEDTAVYYCAARVTSRTSIKGDYWGQGTQVTVSS	low polyreactivity
QVQLVESGGGLVQAGGSLRLSCAASGFTFKRNAMGWYRQAPGKERELVAAISWSGSRTYADSVKGRFTISRDYAKNTVYVQMNSLKPEDTAVYYCAASPGRRRRPYASLIRYDYWGQGTQVTVSS	high polyreactivity
QVQLVESGGGLVQAGGSLRLSCAASGFTFKRYAMGWYRQAPGKERELVAAISWSGGSTYYADSVKGRFTISRDNAKNTVYLQMNSLKPEDTAVYYCAADGGSTEEYYYWGQGTQVTVSS	high polyreactivity
QVQLVESGGGLVQAGGSLRLSCAASGFTFKRYAMGWYRQAPGKERELVAAISYSGGSTYYADSVKGRFTISRDNAKNTVYLQMNSLKPEDTAVYYCAALPGRRLWTYDYWGQGTQVTVSS	high polyreactivity
